Results taken from a protein production outcome set (Wang et al. 2014).

Assay: label from the status in PepcDB records

Sequence	protein production
MKISIITAVYNDPRVERCLDSVASQQGNFEVEHIVVDSESTDDTVDVIEQYENHIDCLISEPDDGMYDAINKGIEAATGDVIGLLNADDYYQDQRVLHDVASQLAETGADACYGDLVYVDADDDVVRYWKSDEYSRYKLYYGWMPPHPTFFVRHEIYERHGGFDLSYEISADYELMIRLLLNTDISVTYLDRVLVRMELGGMSNQSIENMLTVIEDMYRGWKKHNRLGRFVAPFLHPVEKVPQFIRSPPGEKEGTLEHHHHHH	failed
MRMIGRRRALEHRITLIAVIVILQLAATLFFLVDVTGDLRADGSGVHIAAEAGAAIALLVGVVFGAAQVRWLVLRARQDEAAVAAAKGALADLARLRFSDWKLTAAEADVALFALKGCDVAEIAALRGAAAGTVRAQLARVYAKAGVNSQSALMALFLEELVEAGEG	failed
MWPFRKEQERGGWLIGWNPHGLLVIVVAVVHDPRVENATAALNKLKESEGDIRATAHRKQHKDVPSATSLLILGWMHSKQATLDKSEYADAWVRSQHSRAELWLELNEGPLLHQLYCCGSPVQPCHLHVLRSDPTVSYAVTSTAFSAVARHDRGDLVKLVEGKMQPICVEGANSTLEGVLLPSHMVHSAGPRTKMRRMVGSDPLTQDEEEKQEGAKQRTEDDRVSVGSSGSGEGSTESQSVRGSETPRFGGELHPRLDFPTSTDYGELSSLLRASAYGKILRELCENKVSNATDGTAATARLCAYWKNCGNRFTGFLTKILVVFHLVLKWPGNVSYTAALLEFRLRMVIHWLLLLRGDTRVCCLHPVLPHIQHNDPALRRFCVVDFLVRFAVDTICGMLLSLLLSHGSGLLVTKAVSWCRWLLYDLHMEYMDWFEGWPAGLKMNGDLSMTLSCIAKAVLEASWASVEDLSNVGLFYKLLIFVAPLGASCAFAFVADLCLIASLHLYLVFHSVSLPYRFARFMLRNLFLQFQGKKHNPLRHRTDTYDFPVEQTLVATVIFTIIVFLLPTLAVYHVYFALICIAVWLLQGALLVAAHLTLYLPLYPLFYWALYRRQWPGGVALTGPKVLSTPQHSRALNPFARGSLTVEFGVVSKPLELRVLLADFLLVAHVVGRLHPFDMIVAVFKVRRWERTNPGKCLVPPLPADIMPLTGMTLPKTAVA	failed
MPGFEVLYQAAALCLTYPDDDFRARLPLLREAAPQLRGFTDHAAATGQGELQAHYVEVFDFRNRHSLYLSWWTDGDTRNRGMSLVRFKELYRAHGLEFTGEELPDFLPAVLEFVSRTGDMGMLTEHRDALDQLRARLTAFGTPYACVLDAVCATLPPAPTGARR	failed
MGALAAAMFDLRSRRENPGPESDPRKGRDRQRPSDARETKEDLKSQPDLRQVKEKVRNDEIAIQSESLVEYKERNQRRDDVLQVPELYDVLLPKLRVRIVFGSSFKPRKSTGRQWSMTQSWLKIKMNTNENEV	failed
GSGATSAAGKPQETFLDFNESPYGPSAKARAAMQRAAALCGRYDYDAQDALVGLFAKQNGIPAECVHAYCGSRQPLQYAVAAFTGKERGLVIADPSYDSVVGAAQAQGAKVAAVPLDAEAAHDIERMLAAAQRDAGLIYICNPNNPTGTLTPHERIVRAIERKPERSVVLVDEAYIHFSDAPSVVGLAVQRQDVLVLRTFSKLYGMAGARLGLAIGHPQLLARLERFGGHNVVPSPTAHAGLESLRDDDLVPRRKQQNAEVRERTIAWLRQQGFRCTASQSNCFMVDMRRPAELVIAELEKQRVHVGRPWASWPNWVRVTVGSEEEMQAFR	failed
QRALVLTAARGRGKSAATGLSIAGLIEKLRERKEKSIRIIVTAPSIASASQVMSFAKLGLEALGEELSVKVSDTGHIKSLRGDYFKLEYVPPDAAIEDEGELLIIDEAAALGINYIDLALRAWKKVALVTTVHGYEGSNKAFLRYLRRLIESKRIRVKWVNMEQPLRYAKGDPIEKWLYDALLLD	failed
MVQIQGCVVAAALCAVITLIAMQWLMAFDAANLVMLYLLGVVVVALFYGRWPSVVATVINVVSFDLFFIAPRGTLAVSDVQYLLTFAVMLTVGLVIGNLTAGVRYQA	not failed
MNVVQVEYLNVAEIKALLNSTISKLNPRYTSNYMIVTAILTGARLSEIAGLTWNDINFNFNTININKSYDYFAKSFKPTKNKSSNRIIKINNTLCDVLKELRTNNTDLVFKNKRGLIPTSNAVNKALRARLEELNINRRNFHFHSLRHSHVAFLLSQGIDIYPIAQRLGHSDITTTTRTYAYLIEEYKDKNDAIIIAGLDKLEHHHHHH	failed
MSSTKLIVLKSKELIYTAILLALIVVFVIILINMFKRNDKSDGSQSGPAKAVSAPADPGTGIYNTRYTPGTYSSPLILGENTLSVIVTVDDCQITDVSFQQMGETITTMYPLLESSLEDINTQLHYISSVDDIIPSGDSTYTTKLIIDSIKNALKEAVVN	failed
MFIYGSDRLGGKMDINGFIEELDSLYTERRINDVEPFFNESIEQAKKENDLAAQFTILNEMMGFFRDTSQFEKSIKACNDCIELMKKMGIEGTVDYATSLQNVANAYRAAGKLAESLEVYKEVFSIYNENIPSDDYRMASLNNNIALLYQEMNDFPMAVQHLKKALSIIEKIEGMDIEVATTYTNLAASLIEINQASQAEDYLKKALEIFDRDEVKNFHYSGALCAMASVKCSLNQYEEAAKLYEKALPEIEANMGRGSAYNITKENLAKVFDKIKEEKKELTGIELAKSFYEEYGKDMIHNNFSEYEDKIAVGFVGEGSERFGFDDVYSRDHDFGPGFCMWITEDVYEKIGEKLQDEYNKLPKSYKGITRVDTIMAEGRVGVCVVEDFYKKYTGSGDGNLTLEQWINLEDYKIATVTNGEVFRDDLGYFSKIRRKFENQPFQARLVKLARQLGAMAQTGQSNYERAMARKDYVTAQICISDFMKETMKCVYILNNKFAPYYKWLFKGVSRLDGTEKIVSLLEKLSQLPAQKNAWDGYLYDNTKFNEKDEKAIIMEEIAKIIIDKLLELKLIKNRNSNFLNDYVRPIMDLAEGKVEMFDREKTIDKIVKLEFEAFDKVQNVGGRASCQNNWPFFYVMRKSQYMTWTDEMLECICNLWEENKAKGWNMITEKYGRMMEHTSPEEYKKIKDNFPEKSERTIAIVNQIAQIQVDWMKDFAKSYPKLASNARDITSDADQIDNTSYETYLKGELLTYSEELLKLYAQFIVNLAREGKNLAYMTIENTAHLQGYATLEAAESSIR	failed
MFKGLRYLTFVFGGLLGILLAYGFGQVVELELSKFAVISIYSIFAIIFGIIFYLLFPVILKKLTVNFENMIKKAQKTPTSDIVTAIIGLIVGLIIAFLISLPISNIKFPVIGNLLSATITIFIYCALGFIGIKIAVDKKEEILKFKLFSREKSFKKGHVYPKILDTSVIIDGRIYDIIKTGFLEGPIIIAMFMVKELQYIADSEDPNRRQRGRRGLDILDLLQNEKNIEIKIVDKDYKNIKEVDHKLLKLTEDYHGKLITNDYNLNKVASLQKISILNINELALAVKPVVIQGEKLIVEVINRGKEPEQGLGYLSDGTMIVVEDGKDYIGQTIETTVTSILQTPAGKMIFTRKNLK	failed
YISAVQAGDTESFAPLVERYSDMLYALLCRLLQDEEDAADLLQDTFVKAFRHIGRFDGRSSFSTWIYRIAYNEAIDHLRRRKAYVTDRVEELPDVPDEDLEPSGEDPELLQQALDSLPAADKALLLMFYSDDLSVRDIAEVTGMSESNVKVKLHRLRTKLYKMMR	failed
MVKDKQKAIFSENLNSYIAKSEKTQLEIAKSIGVSPQTFNTWCKGIAIPRMGKVQALADYFNINKSDLIEDKKLNIDTVPIESGYTIPVLGRVAAGYGKEAVEEVIGQIEISPSMAAKGDYFGLLIKGDSMIPTLYDGDTVIVERTDDAESGDLVIALVNGSDATCKRLQKYAEGIALIPQNPVYEPMRFTESEIDTTPVKILGKVVEMRRKFLEHHHHHH	not failed
MELVAGSYEQVLFGFTVQRGPAKSGHQETWTPVADFTHHSHTASLSVLASNSRYVVSGSKDETIHIYDMKRKVEHGALVHHAGTVTCLKFHGNQHLISGAEDGHICIWDVKRWKCLKTFKAHRGHVTFLSIHPSGKLALSVGTDKTLRTWNLIEGRSAFIKNIKENAHIVEWSPSGGKYIVVVQNKVDVYRLGTASVSGTITNGKRISSVTFLSDSVLAVAGDEEVVRIFDCDSLECLCEFRAHENRVKDMVSFEVPDHHVLVTASNDGFIKMWTLPQDKKVPPSLLCEAKTGARLTCLTVWLDRAANGMASLPPAAEPCPDQPKTIEKESGDTVQEETSEPNSEKSDVSGDSKQPTKGNSPVTAKKRKMATMSEKKRKKKMSLTWQIPDFSSLSECPFDGILHVPVRRKYLLP	failed
MSLSVEFNKQQVRPRSEISPQDCWDITPLYLNRKAWKADLDSFGLKTDGSPTWPALQATQYQLDNSESLLSLLTTLFSIERKLNKLYVYAHLTHDQDITNQEGIADLKSITHLHTLFAEETSWVQPALTSLSESLIAQHLSAPCLAPYRFYLEKIFRLSIHTGTPGEEKILASAFTPLEVASKAFSSLSDSEIPFGQATDSEGNSHPLSHALASLYMQSTDRELRKTSYLAQCERYHSYRHTFANLLNGKIQAHVFYAKNKRYNSCLQAALYHNNIPTTVYTNLIDIVKKNSSLITKYFSIKQRCLNLKDFHFYDVYAPLSQSKEKKYTFQEAVDLIYTSLSPLGTEYIDTLKQGLTTQGWVDKYENLNKRSGAYSSGCYDSHPYVLLNYTGTLYDVSVIAHEGGHSMHSYFSRKHQPFHDAQYPIFLAEIASTLNEMLLMDSMLKESDSKEEKITILTRCLDTIFSTLFRQVLFASFEYDIHHAAEHGVPLTEEYLSSTYKNLQNEFYGEIITFDVLSNIEWARIPHFYYNFYVYQYATGIIAALCFLEKILNNEDNALNSYLNFLKSGGSDFPLEILKKSGLDMGTVEPIQKAFCFIEKKIQELSSLIEGHHHHHH	not failed
MDKNIIIGAMTALITPFKNGKVDEQSYARLIKRQIENGIDAVVPVGTTGESATLTHEEHRTCIEIAVETCKGTKVKVLAGAGSNATHEAVGLAKFAKEHGADGILSVAPYYNKPTQQGLYEHYKAIAQSVDIPVLLYNVPGRTGCEISTDTIIKLFRDCENIYGVKEASGNIDKCVDLLAHEPRMMLISGEDAINYPILSNGGKGVISVTSNLLPDMISALTHFALDENYKEAKKINDELYNINKILFCESNPIPIKTAMYLAGLIESLEFRLPLCSPSKENFAKIEEVMKKYKIKGF	not failed
MKRREVLQAGMALGGLAGLGRALAQGGFTLTLVHTNDTHAHLEPVELTLSGEKTPVGGVARRVALFDRVWARAKNPLFLDAGDVFQGTLYFNQYRGLADRYFMHRLRYRAMALGNHEFDLGPGPLADFLKGARFKVVSANVDASREPRLKGLFAPYAVVVVGGERVGIIGLTTPDTREISNPGPTVAFLDPYESAQKAVYELLAKGVNKIVVLSHLGYGEDLKLARRLVGVQVIVGGHSHTLLGSFPHKELSPAGPYPTVVKNPEGKDVLVVQAWEWGKVVGLLEVTFDAKGELLAYKGEALLMTPEAAPEDFFAKEALLAYAQPVMALMQQVIAEAKVDLVGERAVVRRRESNLGNLITDGMLWKTRNAGTQIALQNGGGIRASIPKGPITVGKVYEVLPFGNTLVVMDLKGKEILAALENGVSQWENTAGRFLQVSGLRYAFDLSRPAGSRVVRVEVKTEKGYVPLDLEATYRVVVNNFIANGGDGFTVLKEAQGYRVDTGFSDAESFMDYLKELKVVEAGLEGRIEVLNEPKGERPAYFAYRVPGLVGV	not failed
MGHHHHHHSHMTKIIPVASGKGGVGKTSFVANVGYKLSSLGKTVILVDLDLGGSNLHTCLGVKNKGVGIGSFINKKSKSFSDLVCKTSYDKLYLIPGDALYTGTANLPFSIKKKIIESIQKDLIADFIFLDLGSGTSYNTIDFYLASYSGVIVTIPETPSILNAYSFLKNALYRLLYLGFP	failed
APLPVIFIPGIMGTNLRNKADKSEVWRPPNGLWPMDDLFASIGALWTWAWRGPKARQELLKAEQVEVDDQGTIDVGQSGLSEEAARLRGWGKVMRSAYNPVMGLMERRLDNIVSRRELQAWWNDEALSPPGDQGEEQGKVGPIDEEELLRASRYQFDVWCAGYNWLQSNRQSALDVRDYIENTVLPFYQKECGLDPEQMRRMK	failed
SDILKDPPSEANSIQSANATTKTSETNHTSRPRLKNVDRSTAQQLAVTVGNVTVIITDFKEK	failed
